Values quoted from earlier work, collected in PMC10872408 (Structure (London, England : 1993), 2023).

Target: Gαi3 (Rattus norvegicus) (UniProt P08753)
Conditions: cited from earlier work

Gαi3 (Rattus norvegicus), sequence (P08753 2-354): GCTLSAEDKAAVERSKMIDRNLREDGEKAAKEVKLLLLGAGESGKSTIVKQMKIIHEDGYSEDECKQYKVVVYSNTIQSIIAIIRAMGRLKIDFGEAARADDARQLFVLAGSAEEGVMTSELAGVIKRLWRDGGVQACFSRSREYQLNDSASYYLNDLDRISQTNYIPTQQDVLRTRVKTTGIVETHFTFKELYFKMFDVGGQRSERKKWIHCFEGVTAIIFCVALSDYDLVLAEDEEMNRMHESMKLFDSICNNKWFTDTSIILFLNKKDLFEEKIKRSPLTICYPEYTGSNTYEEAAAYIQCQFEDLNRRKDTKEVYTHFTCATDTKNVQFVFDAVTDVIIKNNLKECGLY
GINIP, sequence (Q9UPV7 2-400): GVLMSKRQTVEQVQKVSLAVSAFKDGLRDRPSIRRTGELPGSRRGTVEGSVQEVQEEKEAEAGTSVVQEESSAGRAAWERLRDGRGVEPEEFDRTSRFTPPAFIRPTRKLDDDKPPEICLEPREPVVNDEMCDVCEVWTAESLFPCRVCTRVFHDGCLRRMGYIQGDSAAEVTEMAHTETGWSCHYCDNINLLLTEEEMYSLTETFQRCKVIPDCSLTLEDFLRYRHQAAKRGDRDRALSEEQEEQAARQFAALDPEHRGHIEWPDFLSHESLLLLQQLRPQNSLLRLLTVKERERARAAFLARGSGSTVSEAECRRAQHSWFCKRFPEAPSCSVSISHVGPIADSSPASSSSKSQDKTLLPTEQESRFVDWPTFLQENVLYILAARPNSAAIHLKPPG

Substance: GINIP (from UniProt Q9UPV7)
- Kd: 65 nM
